# Assay results as given in the supplement of paper PMC10567573.
# ± gives the standard deviation.
# Assay: protein stability index of a GFP-peptide fusion (GPS, HEK-293T) (PSI 1-6); higher = more stable
# [1] = treatment: DMSO, c terminus: a fixed tail appended
# [2] = treatment: MLN4924 1 uM, 8 h, c terminus: a fixed tail appended
# [3] = treatment: DMSO, c terminus: native
# [4] = treatment: MLN4924 1 uM, 8 h, c terminus: native
# 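Also: 24-mer peptide tiles fused after GFP, lentivirally expressed, FACS-sorted into six equal bins by GFP/DsRed ratio, decoded by Illumina sequencing, PSI is the read-weighted mean bin number.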
Sequence,protein stability index [1],protein stability index [2],protein stability index [3],protein stability index [4]
DRFSGETSAAALSPMSAATLGGLN [SMTNL2],4.46 ± 0.14,4.21 ± 0.24,–,–
VGYQSQNISCFFRLVDRDSVWGYD [MYORG],2.34 ± 0.85,2.34 ± 0.17,–,–
TYNTKVYKMFASRRKQRYWPFSMD [LOXL2],2.32 ± 0.51,1.89 ± 0.15,–,–
SELQKELKKVKTAHSNDGDCKTQ [DPCD],–,–,4.94 ± 0.27,5.28 ± 0.14
GFGVLRLDADAAQRVVYLEGCGPP [TSPAN10],2.88 ± 0.33,2.65 ± 0.13,–,–
VTATDQKVEKMLISSIKEKYPSHS [IMPA1],3.94 ± 0.14,4.27 ± 0.23,–,–
TTYDRRSSQERKFMEERELLGQDE [RSPH3],5.34 ± 0.2,5.39 ± 0.23,–,–
NLNEDDTFLVFSKAELGALPHDFI,2.82 ± 0.2,2.87 ± 0.16,–,–
QSLEGDTTKGTSEMSEKRGPTSSN [MLH1],5.54 ± 0.18,5.43 ± 0.28,–,–
SASDGSSFVVARYFPAGNVVNEGF [GLIPR2],2.58 ± 0.29,2.58 ± 0.35,–,–
FLDERLYCESHAKARVKPPEGYDV [PDLIM4],2.78 ± 0.8,3.23 ± 0.93,–,–
PLLPAPPKTPMDGADCGIQWWNAV [LYSMD4],3.48 ± 0.42,3.62 ± 0.21,–,–
GGPGRQTTSPNVLWPTPGHLSPLV [ESR2],2.97 ± 0.22,3.15 ± 0.048,–,–
KLLDELPIAKVMKDYLKHKFDDI [ASB7],–,–,2.37 ± 0.28,2.66 ± 0.38
EYQLNDSAAYYLNDLDRIAQPNYI [GNAI1],2.61 ± 0.15,2.79 ± 0.49,–,–
VAEAFRALASAQCPQFGIPRKRLK [SPOPL],2.73 ± 0.42,3 ± 0.34,–,–
RMDKRTLALLVLAHSSDVLENVFS [GOLPH3L],2.37 ± 0.53,2.22 ± 0.23,–,–
FTTSILRHWCMKHDELLAEHIKSL [INTS3],2.22 ± 0.2,2.17 ± 0.18,–,–
AELAETIVYARVLALHPEAPGLYN [CCDC3],1.99 ± 0.077,2.55 ± 0.2,–,–
KVLGRLRALSDTTEELTVIKSSLK [SLC2A12],2.58 ± 0.25,2.76 ± 0.28,–,–
PSDKVGRADAHLGSSSVALPKEAS [TOR1AIP2],5.23 ± 0.14,5.04 ± 0.091,–,–
NRLLQEENRTLQVLRAEHRGFQEE [CBY2],4.43 ± 0.21,4.46 ± 0.12,–,–
TIQQEKLLAEKEEKLQKEQKELQD [SASS6],5.52 ± 0.31,5.54 ± 0.23,–,–

Sequence,protein stability index [1],protein stability index [2],protein stability index [3],protein stability index [4]
TKQRIQDQKVPYIFRDNQWVGFDD [CHIT1],3.49 ± 0.47,3.69 ± 0.4,–,–
SGGGGSSSNFHINVEESVDGQVVS [KRT15],5.26 ± 0.1,5.21 ± 0.26,–,–
ECSYTSADGQRHHSKLLVSGFWGV [DHCR7],2.09 ± 0.1,2.17 ± 0.31,–,–
FLFPIDISLVKREHDFLDRDAIEA [DLC1],2.66 ± 0.57,2.72 ± 0.31,–,–
FLSFSMYQSFVQFLQYYYQSGCLY [TMEM120A],3.02 ± 0.39,3.54 ± 0.45,–,–
AYVAMIPQCIKEEDTPSDNDSGIC [ATF4],4.25 ± 0.41,4.46 ± 0.26,–,–
GNQLISNNIKFKKSSILTRAGEQR [CLCN6],3.78 ± 0.13,4.06 ± 0.44,–,–
IVAVLCYINLLNYMDRFTVAGVLP [SPNS1],3.23 ± 0.3,3.45 ± 0.14,–,–
SRRQEKSAGDADPENGEIKPASKP [ELOA2],5.53 ± 0.19,5.69 ± 0.1,–,–
IERLRSLSPKIMQEAFLVQEVVEL [TBC1D10A],2.08 ± 0.36,2.09 ± 0.29,–,–
WDQVSRLHEVLTEVVPIHGRGNFP [TENT5C],2.59 ± 0.28,2.67 ± 0.17,–,–
PSGCAIACGGLDNKCSVYPLTFDK [GNB5],2.72 ± 0.17,2.94 ± 0.36,–,–
LTCEFNNNHESLDEELHLLIISCR [FBXO39],2.27 ± 0.41,2.41 ± 0.39,–,–
QNCLWTLRNLSDAATKQEGMEGLL [CTNNB1],3.23 ± 0.28,3.04 ± 0.18,–,–
KQGYILNSDQTTCRIQDLCAMEDH [MATN2],3.35 ± 0.27,3.17 ± 0.39,–,–
MRLSWSVAQGPFDSFVVQYEDTNG [TNXB],2.26 ± 0.17,2.21 ± 0.12,–,–
QQERNDTNFHGVCMFCNEEFLGNR [ZNF277],2.96 ± 0.34,2.99 ± 0.6,–,–
HDGKNQPSKTYPAFLEPDETFIVP [SPSB1],4.28 ± 0.19,4.25 ± 0.39,–,–
MSGGPMGGRPGGRGAPAVQQNIPS [WAS],4.31 ± 0.35,4.62 ± 0.18,–,–
LGACVRTAVAQGGWRSLWLGWGPT [SLC25A39],2.07 ± 0.63,2.04 ± 0.16,–,–
TLHNAQTQEPIFTFTASFSGKVFP [TRIM15],2.49 ± 0.23,2.56 ± 0.3,–,–
SYPMRRSYRYKLLNWAYQQVQQNK [STEAP1],2.34 ± 0.19,2.36 ± 0.25,–,–
AAPRTLAAHPPLPLLPPAMGTEPA [TBX6],4.61 ± 0.43,4.57 ± 0.29,–,–

Sequence,protein stability index [1],protein stability index [2],protein stability index [3],protein stability index [4]
GSINLLESPQLATLAEDVTAALAK [MAP2],4.12 ± 0.066,4.05 ± 0.27,–,–
PGGNLIVELARYLVDVRQEQLQGF [DNAAF3],2.9 ± 0.56,2.39 ± 0.14,–,–
SELTSLCQSVLEDFNLCLFYLPSS [SMG5],2.65 ± 0.64,2.42 ± 0.39,–,–
RRRIEEERLRLEQQKQQIMAALNS [ACBD3],4.05 ± 0.14,4.58 ± 0.2,–,–
LFFAVGIAQYALLGYFIRSWRTLA [SLC22A15],3.3 ± 0.34,3.18 ± 0.26,–,–
YKILLDVKTRLEQEIATYRRLLEG [KRT17],2.32 ± 0.14,2.39 ± 0.37,–,–
KHAVVNLINYQDDAELATRAIPEL [CTNNB1],3.66 ± 0.23,3.64 ± 0.38,–,–
TGMPMMPQQPVMFAQPMMRPPFGA [SNAP91],2.97 ± 0.064,2.67 ± 0.33,–,–
WIEHSKLREINFKIVEFNPMVLKG [GLT8D2],2.16 ± 0.1,2.35 ± 0.14,–,–
IYGPGNLSTNNNTLRDHFKGISSH [SLC2A12],2.95 ± 0.26,3 ± 0.14,–,–
NGNSYICKCSEGFVLAEDGRRCKK [MATN2],3.75 ± 0.28,4.1 ± 0.19,–,–
GLLALAIGLWGLAVKGSLGSDLGG [TSPAN10],4.49 ± 0.53,3.4 ± 0.37,–,–
LKLRQQVIATATVYFKRFYARYSL [CCNC],2.85 ± 0.51,2.49 ± 0.18,–,–
VDREKGLSAEPGWQAKREEEEEEE [CHGA],5.36 ± 0.48,5.7 ± 0.18,–,–
SESGSLGNSSGSDVTSLSSQLPDT [ISL2],5.43 ± 0.056,5.41 ± 0.14,–,–
RDVYLPAGKWRSYKGELFDKTPVL [MYORG],2.32 ± 0.3,2.51 ± 0.18,–,–
TYLVSERLEREERNQTQVLRQQQD [FAF2],4.97 ± 0.21,4.89 ± 0.072,–,–
WQPAVPLMHMLHLSGALDFPRQS [SPATS1],–,–,2.9 ± 0.38,2.73 ± 0.48
CVNYEGQSAYDVADMLKQYFRDLP [DLC1],2.54 ± 0.21,2.65 ± 0.32,–,–
AKGGFSGCSAVLSGGSSSSFRAGS [KRT71],3.17 ± 0.13,3.17 ± 0.24,–,–
MTESLEASEFLEQSMSQTRELLLD [RSPH3],4.9 ± 0.12,4.98 ± 0.32,–,–
SVKLRGSSLFMDTEKSGKREFDVR [WEE1],3.86 ± 0.36,3.94 ± 0.095,–,–
RARVKEKFSPEAFTEQLYRYVTKL [ALG2],2.36 ± 0.48,2.05 ± 0.46,–,–

Sequence,protein stability index [1],protein stability index [2],protein stability index [3],protein stability index [4]
FMEMNQKLFDDCTQQFKAEKLKEK [PPP2R5C],4.26 ± 0.31,4.43 ± 0.28,–,–
YWRYDEYKRSMDPGYPKMIAHDFP [MMP1],2.29 ± 0.22,2.18 ± 0.49,–,–
PDVIPLPHIYGARIKGVEVFCPLD [FAM189A2],2.55 ± 0.25,2.64 ± 0.14,–,–
PSGPPPPPPSVLGVGPVAPPPPPP [WASL],4.86 ± 0.21,4.89 ± 0.18,–,–
QLTNTSGTVIGVTSCIVIILIIIS [NETO1],2.43 ± 0.27,2.43 ± 0.28,–,–
PVCYQCLEEGKHSSHEVKALGAMW [TRIM9],2.64 ± 0.35,2.76 ± 0.32,–,–
TEEDDGFVDILESDLKDDDAVPPG [CDC25B],5.46 ± 0.27,5.4 ± 0.12,–,–
PGGRPEVIYNYVQRPFIRMSWEKE [BTBD10],3.06 ± 0.41,3.21 ± 0.43,–,–
VNPTGNLPMWSNQTWNNSTWSNQT [NANOGP8],2.75 ± 0.2,2.98 ± 0.35,–,–
MDDSTEREQSRLTSCLKKREEMKL [TNFSF13B],5.04 ± 0.19,5.16 ± 0.11,–,–
LKLMVNVCGHTLCESCVDLLFVRG [MNAT1],3.35 ± 0.92,3.27 ± 0.44,–,–
GKLKCDICGIICIGPNVLMVHKRS [IKZF1],2.91 ± 1.6,2.26 ± 0.75,–,–
SRKIAVEDENDLEELNNGEPQTEH [MIA2],5.61 ± 0.13,5.37 ± 0.29,–,–
SLSFEDELVYADDYIMDEDQSKLA [ESRRG],5.43 ± 0.31,5.41 ± 0.27,–,–
RRSQQQQVPVVDFQAELRQAFLAE [SNURF],3.84 ± 0.37,3.86 ± 0.28,–,–
SDLGFEVKCFNDLKAEELLLKIHE [CASP6],2.48 ± 0.28,2.69 ± 0.37,–,–
AAPGVDLTRVLAEMREQYEAMAEK [KRT15],4.57 ± 0.32,4.35 ± 0.086,–,–
NGNEEDNHLPPQTKRSSRNPVFQD [FAM104A],5.16 ± 0.29,5.26 ± 0.2,–,–
RESRGSTRGKRESESRGSSGRVKR [USP39],5.14 ± 0.32,5.24 ± 0.33,–,–
AYLVTVRGNLSILAAVLVEPKLHT [OR3A1],3.21 ± 0.75,2.71 ± 0.68,–,–
